Holding throughout (details): both partners purified
For the assay “hHsp70-CSSSS (hHsp70 …)”, the target named is hHsp70-CSSSS (hHsp70 C267S/C306S/C574S/C603S) (human, UniProt P0DMV8 1-641, C267S | C306S | C574S | C603S). Put plainly: fluorescence polarisation; steady state; 20 nM FAR with increasing hHsp70 or mutant; apo (no nucleotide); Buffer B; RT, 60 min; single site binding model. In general terms: Polarisation of emitted light reports the rotation of a fluorescent probe.

Assay [1] deals with T1, WT hHsp70 (human HspA1A), full-length (residues 1–641) (human, UniProt P0DMV8 1-641).
T1 construct: The deglutathionylated sample (glutathionylated, then 10 mM DTT) carries no modification and is written as this molecule; the label in the row tells which sample it was; also called HspA1A/B; untreated control (-C); source: monomeric peak collected
Described as above.

The target in assay [2] is hHsp70-CSSCC (hHsp70 C267S/C306S) (human, UniProt P0DMV8 1-641, C267S | C306S). The assay is described as above.
In the assay “hHsp70-CSSAA (hHsp70 …)” the target is hHsp70-CSSAA (hHsp70 C267S/C306S/C574A/C603A) (human, UniProt P0DMV8 1-641, C267S | C306S | C574A | C603A). Described as above.
The target in the assay “hHsp70-CSSAS (hHsp70 …)” is hHsp70-CSSAS (hHsp70 C267S/C306S/C574A/C603S) (human, UniProt P0DMV8 1-641, C267S | C306S | C574A | C603S). The assay is described as above.
Assay [3] has as its target hHsp70-CSSCA (hHsp70 C267S/C306S/C603A) (human, UniProt P0DMV8 1-641, C267S | C306S | C603A). Description: fluorescence polarisation; kinetic time course at RT; 20 nM FAR with 10 μM hHsp70 or mutant, apo or with ADP/ATP (1 mM; 0.5 mM ADP in Fig. 7C); 1 mM diamide with 1 mM GSH added at 60 min, 10 mM DTT at 120 min.
Assay [4] addresses hHsp70-CSSAC (hHsp70 C267S/C306S/C574A) (human, UniProt P0DMV8 1-641, C267S | C306S | C574A). Described as above.
Assay [5] concerns the target hHsp70 T204A (binds but does not hydrolyze ATP) (human, UniProt P0DMV8 1-641, T204A). The description is as above.
For assay [6], the target named is T1, WT hHsp70 (human HspA1A), full-length …. Description: fluorescence polarisation; steady state; 20 nM FAR with increasing hHsp70 (control, glutathionylated or deglutathionylated); 0.5 mM ADP in Buffer B (50 mM Tris-HCl pH 7.5, 100 mM KCl, 5 mM MgCl2); RT, 60 min; single site binding model.

“And” between values parts separate entries of the source, which are not always exact repeats. Identical values can stand only once. Ends that are not written are not given here. * marks the point of attachment. FITC = O=C1OC2(c3ccc(O)cc3Oc3cc(O)ccc32)c2ccc(NC(=S)*)cc21

T1 sequence (P0DMV8 whole entry, the tested form may be a part): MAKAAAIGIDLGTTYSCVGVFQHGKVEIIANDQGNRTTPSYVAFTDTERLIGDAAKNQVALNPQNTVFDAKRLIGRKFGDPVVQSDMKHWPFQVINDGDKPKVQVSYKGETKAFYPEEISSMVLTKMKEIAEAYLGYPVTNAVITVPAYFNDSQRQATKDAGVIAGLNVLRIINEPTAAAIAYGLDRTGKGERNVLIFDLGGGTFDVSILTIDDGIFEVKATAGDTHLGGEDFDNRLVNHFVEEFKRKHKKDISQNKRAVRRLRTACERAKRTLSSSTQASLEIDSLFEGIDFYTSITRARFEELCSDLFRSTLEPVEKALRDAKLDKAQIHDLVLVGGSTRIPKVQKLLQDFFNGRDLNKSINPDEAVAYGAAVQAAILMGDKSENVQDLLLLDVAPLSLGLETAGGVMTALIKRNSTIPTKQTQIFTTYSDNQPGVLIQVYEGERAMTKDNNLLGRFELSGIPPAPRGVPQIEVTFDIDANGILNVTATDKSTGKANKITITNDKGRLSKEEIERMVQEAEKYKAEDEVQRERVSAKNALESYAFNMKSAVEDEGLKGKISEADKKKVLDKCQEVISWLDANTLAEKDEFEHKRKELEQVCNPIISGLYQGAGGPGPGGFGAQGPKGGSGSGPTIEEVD
Chain of hHsp70-CSSAS (hHsp70 C267S/C306S/C574A/C603S) (P0DMV8 whole entry C267S/C306S/C574A/C603S): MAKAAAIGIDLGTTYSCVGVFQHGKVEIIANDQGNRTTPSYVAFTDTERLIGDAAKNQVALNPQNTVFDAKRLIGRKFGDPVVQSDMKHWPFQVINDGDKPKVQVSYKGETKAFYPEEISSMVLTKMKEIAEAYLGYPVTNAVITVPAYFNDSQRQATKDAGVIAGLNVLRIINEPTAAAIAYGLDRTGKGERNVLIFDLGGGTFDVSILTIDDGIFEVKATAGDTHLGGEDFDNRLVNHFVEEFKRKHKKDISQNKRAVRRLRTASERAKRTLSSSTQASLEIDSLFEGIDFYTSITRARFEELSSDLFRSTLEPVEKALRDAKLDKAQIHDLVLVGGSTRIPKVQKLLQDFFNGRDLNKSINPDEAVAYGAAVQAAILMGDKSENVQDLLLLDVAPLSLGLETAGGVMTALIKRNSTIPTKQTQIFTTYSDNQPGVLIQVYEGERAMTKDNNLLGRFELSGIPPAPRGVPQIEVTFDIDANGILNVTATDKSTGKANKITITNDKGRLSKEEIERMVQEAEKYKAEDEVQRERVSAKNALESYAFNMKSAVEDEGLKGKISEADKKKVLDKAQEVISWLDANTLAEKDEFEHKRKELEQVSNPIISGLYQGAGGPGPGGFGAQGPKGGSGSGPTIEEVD
Chain of hHsp70-CSSSS (hHsp70 C267S/C306S/C574S/C603S) (P0DMV8 whole entry C267S/C306S/C574S/C603S): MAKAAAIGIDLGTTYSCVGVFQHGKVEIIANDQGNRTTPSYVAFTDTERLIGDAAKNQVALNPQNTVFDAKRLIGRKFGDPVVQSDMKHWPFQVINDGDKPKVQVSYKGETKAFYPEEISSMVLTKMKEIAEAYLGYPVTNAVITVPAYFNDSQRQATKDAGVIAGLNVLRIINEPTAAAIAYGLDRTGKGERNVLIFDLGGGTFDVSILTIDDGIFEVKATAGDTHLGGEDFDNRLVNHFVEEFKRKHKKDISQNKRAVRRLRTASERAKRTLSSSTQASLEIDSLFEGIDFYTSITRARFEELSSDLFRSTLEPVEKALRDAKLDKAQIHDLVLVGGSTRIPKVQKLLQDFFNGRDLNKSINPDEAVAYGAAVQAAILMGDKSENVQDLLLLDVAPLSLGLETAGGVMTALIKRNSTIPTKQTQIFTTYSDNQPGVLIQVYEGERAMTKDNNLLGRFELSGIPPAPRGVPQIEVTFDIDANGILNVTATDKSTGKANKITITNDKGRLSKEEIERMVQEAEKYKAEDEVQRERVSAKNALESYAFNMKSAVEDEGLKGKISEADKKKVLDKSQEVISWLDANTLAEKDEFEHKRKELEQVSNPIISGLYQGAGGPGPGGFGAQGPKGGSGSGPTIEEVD
Chain of hHsp70 T204A (binds but does not hydrolyze ATP) (P0DMV8 whole entry T204A): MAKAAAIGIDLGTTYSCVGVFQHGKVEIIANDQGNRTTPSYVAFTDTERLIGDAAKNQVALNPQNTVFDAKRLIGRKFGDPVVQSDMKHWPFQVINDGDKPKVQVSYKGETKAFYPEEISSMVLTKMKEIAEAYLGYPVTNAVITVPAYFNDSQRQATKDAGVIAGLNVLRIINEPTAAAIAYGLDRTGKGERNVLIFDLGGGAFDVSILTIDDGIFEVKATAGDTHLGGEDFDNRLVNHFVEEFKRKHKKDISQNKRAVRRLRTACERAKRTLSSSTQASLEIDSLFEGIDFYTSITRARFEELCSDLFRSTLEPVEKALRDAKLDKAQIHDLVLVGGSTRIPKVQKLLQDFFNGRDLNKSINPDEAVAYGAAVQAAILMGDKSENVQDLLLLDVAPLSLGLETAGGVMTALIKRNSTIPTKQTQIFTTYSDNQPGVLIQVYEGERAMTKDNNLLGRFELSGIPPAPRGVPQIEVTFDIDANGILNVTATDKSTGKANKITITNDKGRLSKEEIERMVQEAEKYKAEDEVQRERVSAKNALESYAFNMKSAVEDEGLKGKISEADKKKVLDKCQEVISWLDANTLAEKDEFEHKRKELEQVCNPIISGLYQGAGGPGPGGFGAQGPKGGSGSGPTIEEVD
Chain of hHsp70-CSSAA (hHsp70 C267S/C306S/C574A/C603A) (P0DMV8 whole entry C267S/C306S/C574A/C603A): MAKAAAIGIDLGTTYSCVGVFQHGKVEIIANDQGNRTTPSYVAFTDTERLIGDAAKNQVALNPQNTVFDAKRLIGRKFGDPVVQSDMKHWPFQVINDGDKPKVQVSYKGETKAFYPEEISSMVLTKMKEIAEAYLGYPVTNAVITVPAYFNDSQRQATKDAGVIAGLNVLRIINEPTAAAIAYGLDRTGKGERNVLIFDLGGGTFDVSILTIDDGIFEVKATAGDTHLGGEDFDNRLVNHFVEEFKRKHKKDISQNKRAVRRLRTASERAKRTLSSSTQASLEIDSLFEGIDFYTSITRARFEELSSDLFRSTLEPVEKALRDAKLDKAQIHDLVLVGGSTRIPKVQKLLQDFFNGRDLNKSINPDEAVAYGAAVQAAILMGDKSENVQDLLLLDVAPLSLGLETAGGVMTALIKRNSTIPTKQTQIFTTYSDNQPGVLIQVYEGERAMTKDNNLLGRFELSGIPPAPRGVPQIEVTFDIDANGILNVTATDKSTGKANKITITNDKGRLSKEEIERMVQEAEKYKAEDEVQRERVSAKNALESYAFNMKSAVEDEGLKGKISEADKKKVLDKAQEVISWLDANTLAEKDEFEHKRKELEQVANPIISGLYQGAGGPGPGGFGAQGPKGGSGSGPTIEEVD
Chain of hHsp70-CSSAC (hHsp70 C267S/C306S/C574A) (P0DMV8 whole entry C267S/C306S/C574A): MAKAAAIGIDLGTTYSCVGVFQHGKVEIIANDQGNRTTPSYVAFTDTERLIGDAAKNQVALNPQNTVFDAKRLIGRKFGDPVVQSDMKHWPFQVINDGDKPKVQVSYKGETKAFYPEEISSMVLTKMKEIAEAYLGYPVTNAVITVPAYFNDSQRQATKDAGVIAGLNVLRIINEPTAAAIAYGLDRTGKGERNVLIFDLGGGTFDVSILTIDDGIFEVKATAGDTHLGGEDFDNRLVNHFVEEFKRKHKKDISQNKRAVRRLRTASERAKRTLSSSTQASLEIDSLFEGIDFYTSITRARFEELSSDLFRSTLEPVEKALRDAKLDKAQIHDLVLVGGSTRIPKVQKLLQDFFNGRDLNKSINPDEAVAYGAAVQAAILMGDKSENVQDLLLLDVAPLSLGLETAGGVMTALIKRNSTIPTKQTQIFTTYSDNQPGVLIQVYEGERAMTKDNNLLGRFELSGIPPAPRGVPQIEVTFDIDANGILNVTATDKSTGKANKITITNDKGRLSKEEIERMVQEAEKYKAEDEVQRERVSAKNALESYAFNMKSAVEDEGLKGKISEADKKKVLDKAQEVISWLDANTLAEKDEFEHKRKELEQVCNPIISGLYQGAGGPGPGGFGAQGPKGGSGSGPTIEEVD
Chain of hHsp70-CSSCA (hHsp70 C267S/C306S/C603A) (P0DMV8 whole entry C267S/C306S/C603A): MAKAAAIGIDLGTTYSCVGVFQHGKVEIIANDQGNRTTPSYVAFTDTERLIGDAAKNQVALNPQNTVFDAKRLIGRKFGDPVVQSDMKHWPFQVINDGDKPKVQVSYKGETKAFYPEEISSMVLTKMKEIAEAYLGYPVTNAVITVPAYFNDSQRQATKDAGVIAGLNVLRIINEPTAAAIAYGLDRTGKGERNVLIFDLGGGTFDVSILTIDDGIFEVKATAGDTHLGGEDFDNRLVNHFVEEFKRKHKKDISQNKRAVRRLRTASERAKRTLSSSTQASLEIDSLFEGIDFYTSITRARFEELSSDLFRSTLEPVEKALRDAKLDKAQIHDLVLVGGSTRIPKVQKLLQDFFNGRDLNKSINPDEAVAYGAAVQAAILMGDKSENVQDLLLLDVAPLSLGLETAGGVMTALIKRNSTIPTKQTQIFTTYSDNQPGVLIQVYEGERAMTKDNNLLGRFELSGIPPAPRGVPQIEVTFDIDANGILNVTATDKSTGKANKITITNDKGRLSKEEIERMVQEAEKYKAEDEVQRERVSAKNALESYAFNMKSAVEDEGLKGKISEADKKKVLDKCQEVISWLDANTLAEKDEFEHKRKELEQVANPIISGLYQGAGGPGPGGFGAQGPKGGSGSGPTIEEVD

In the case of {FITC}-ALLLSAPRR (fluorescently labeled peptide substrate) [FITC-labeled ALLLSAPRR (FAR) peptide], the binding result (with hHsp70-CSSSS (hHsp70 …); in [3]; in assay [4]; in assay [5]) was “binds” in each case. Moreover, the Kd (as a rule, the free concentration of one partner at which half of the binding sites on the other are occupied at equilibrium, for simple one-to-one binding) is 1120 ± 120 nM in assay [1]; 1350 ± 230 nM in [2]; 1190 ± 210 nM in the assay with hHsp70-CSSAA (hHsp70 …); 1440 ± 540 nM in the assay with hHsp70-CSSAS (hHsp70 …); 1070 nM and 1200 nM in assay [6].

Values taken from paper PMC7294093, “S-Glutathionylation of human inducible Hsp70 reveals a regulatory mechanism involving the C-terminal α-helical lid” (The Journal of Biological Chemistry, 2020).
